Results taken from US20010010923A1, “MODIFIED CARBOXYPEPTIDASE” (priority 1997, published 2001).
“Also recorded” adds a separate entry of the source. Marks after values point to notes of the source that are not given here.

Legend:
[1] = Transpeptidation of FA-Ala-Xaa-OH with H-Gly-NH2, Table 2; format: biochemical; settings: for Fraction of aminolysis (fa), P1' Ala: FA-Ala-Ala-OH 0.2 mM; for Fraction of aminolysis (fa), P1' Ala / Fraction of aminolysis (fa), P1' Leu / Fraction of aminolysis (fa), P1' Met / Fraction of aminolysis (fa), P1' Phe / Fraction of aminolysis (fa), P1' Val: 1.9 M H-Gly-NH2, pH 7.5, room temperature; for Fraction of aminolysis (fa), P1' Leu: FA-Ala-Leu-OH 0.2 mM; for Fraction of aminolysis (fa), P1' Met: FA-Ala-Met-OH 0.2 mM; for Fraction of aminolysis (fa), P1' Phe: FA-Ala-Phe-OH 0.2 mM; for Fraction of aminolysis (fa), P1' Val: FA-Ala-Val-OH 0.2 mM; for fraction of aminolysis compared to wild type, in words: larger, hydrophobic leaving group such as leucine
Description: (§1) Transamidation reactions were carried out generally as described in PCT Application WO 95/20039. In general, the method included dissolving the nucleophile (H-Leu-NH2, unless otherwise indicated) in 50 mM HEPES, 5 mM EDTA and adjusting the pH to 7.5, 5 μl of peptide substrate (8 mM Bz-G-A-R-A-R-A-OH, unless otherwise indicated, in methanol) was added to 190 μl nucleophile solution followed by 5 μl enzyme, resulting in a substrate concentration of 0.2 mM.
(§2) During the reaction, 20 μl aliquots were removed from the reaction mixture and added to 50 μl 1% trifluoroacetic acid to quench the reaction. The reactant composition was determined by HPLC using a Waters HPLC equipped with a C-18 Waters Novapac 4μ reverse phase column and various gradients of acetonitrile in 0.1% trifluoroacetic acid. The separation was monitored at 254 nm allowing the direct quantification of the products from the integrated peak areas. The composition of the reaction mixture was determined at least twvice during the reaction, the first when 20-50% (preferably 35%) of the substrate had been consumed in the reaction and the second time when 50-90% (preferably 80%) of the peptide substrate had been consumed.
(§3) The fraction of aminolysis (fa) was expressed as the ratio between the formed aminolysis product and the sum of all products formed. Unconsumed substrate was disregarded in the calculations.
Site specific mutagenesis was performed as described for Example 1 to produce the S1 mutants used below.
Transamidation reactions were performed as described for Example 1.

[2] = Transpeptidation of FA-Ala-OBzl with H-Leu-NH2, Table 3; format: biochemical; settings: for fa / KN(app): FA-Ala-OBzl 0.2 mM, pH 7.5; for fa: H-Leu-NH2; for change in famax and KN(app), in words: compared with wild type, Table 3; for KN(app): nucleophile H-Leu-NH2 concentration at which fa is half of maximum
Description: as §1, §2, §3
Site specific mutagenesis was performed as described in Example 1 to produce the specific substitution mutants described below. Transamidation reactions were performed as described for Example 1.
In table 3, below, KN(app) represents the nucleophile concentration at which fa is half of the maximum value (a measure for the dissociation constant of the nucleophile). famax is the highest possible fa obtained at saturation of the enzyme with the nucleophile.
KN(app) indicates the concentration at which famax/2 is reached and thus describes the apparent binding constant of the nucleophile. Because the competing hydrolysis reaction is thought to occur while the leaving group remains attached to the to the acyl-enzyme intermediate, a low KN(app) is preferred.

Row | Molecule | Fraction of aminolysis (fa), P1' Ala [1] | Fraction of aminolysis (fa), P1' Leu [1] | Fraction of aminolysis (fa), P1' Met [1] | Fraction of aminolysis (fa), P1' Phe [1] | Fraction of aminolysis (fa), P1' Val [1] | fa [2] | change in famax and KN(app), in words [2] | fraction of aminolysis compared to wild type, in words [1] | KN(app) [2]
1 | T60M: carboxypeptidase Y S1' mutant, substitution T60M (protein, UniProt P00729 112-532, looked up, variant T60M) Carboxypeptidase Y: KIKDPKILGIDPNVTQYTGYLDVEDEDKHFFFWTFESRNDPAKDPVILWLNGGPGCSSLMGLFFELGPSSIGPDLKPIGNPYSWNSNATVIFLDQPVNVGFSYSGSSGVSNTVAAGKDVYNFLELFFDQFPEYVNKGQDFHIAGESYAGHYIPVFASEILSHKDRNFNLTSVLIGNGLTDPLTQYNYYEPMACGEGGEPSVLPSEECSAMEDSLERCLGLIESCYDSQSVWSCVPATIYCNNAQLAPYQRTGRNVYDIRKDCEGGNLCYPTLQDIDDYLNQDYVKEAVGAEVDHYESCNFDINRNFLFAGDWMKPYHTAVTDLLNQDLPILVYAGDKDFICNWLGNKAWTDVLPWKYDEEFASQKVRNWTASITDEVAGEVKSYKHFTYLRVFNGGHMVPFDVPENALSMVNEWIHGGFSL | 0.78 | 0.03 | 0.01 | 0.18 | 0.15 | 0.98^b | increase in both famax and KN(app) | – | –
2 | T60A: carboxypeptidase Y S1' mutant, substitution T60A (protein, UniProt P00729 112-532, looked up, variant T60A) Carboxypeptidase Y: KIKDPKILGIDPNVTQYTGYLDVEDEDKHFFFWTFESRNDPAKDPVILWLNGGPGCSSLAGLFFELGPSSIGPDLKPIGNPYSWNSNATVIFLDQPVNVGFSYSGSSGVSNTVAAGKDVYNFLELFFDQFPEYVNKGQDFHIAGESYAGHYIPVFASEILSHKDRNFNLTSVLIGNGLTDPLTQYNYYEPMACGEGGEPSVLPSEECSAMEDSLERCLGLIESCYDSQSVWSCVPATIYCNNAQLAPYQRTGRNVYDIRKDCEGGNLCYPTLQDIDDYLNQDYVKEAVGAEVDHYESCNFDINRNFLFAGDWMKPYHTAVTDLLNQDLPILVYAGDKDFICNWLGNKAWTDVLPWKYDEEFASQKVRNWTASITDEVAGEVKSYKHFTYLRVFNGGHMVPFDVPENALSMVNEWIHGGFSL | 0.91 | 0.32 | 0.16 | 0.12 | 0.44 | 0.92^a | – | improvement in fraction of aminolysis obtained; also recorded: most effective at increasing the fraction of aminolysis | –
3 | M398Y: carboxypeptidase Y S1' mutant, substitution M398Y (protein, UniProt P00729 112-532, looked up, variant M398Y) Carboxypeptidase Y: KIKDPKILGIDPNVTQYTGYLDVEDEDKHFFFWTFESRNDPAKDPVILWLNGGPGCSSLTGLFFELGPSSIGPDLKPIGNPYSWNSNATVIFLDQPVNVGFSYSGSSGVSNTVAAGKDVYNFLELFFDQFPEYVNKGQDFHIAGESYAGHYIPVFASEILSHKDRNFNLTSVLIGNGLTDPLTQYNYYEPMACGEGGEPSVLPSEECSAMEDSLERCLGLIESCYDSQSVWSCVPATIYCNNAQLAPYQRTGRNVYDIRKDCEGGNLCYPTLQDIDDYLNQDYVKEAVGAEVDHYESCNFDINRNFLFAGDWMKPYHTAVTDLLNQDLPILVYAGDKDFICNWLGNKAWTDVLPWKYDEEFASQKVRNWTASITDEVAGEVKSYKHFTYLRVFNGGHYVPFDVPENALSMVNEWIHGGFSL | 0.90 | 0.90 | 0.90 | 0.92 | 0.89 | 0.78^b | – | improvement in fraction of aminolysis obtained; also recorded: most dramatic improvement; also recorded: enhanced transpeptidation | 5.2^c mM
4 | M398C: carboxypeptidase Y S1' mutant, substitution M398C (protein, UniProt P00729 112-532, looked up, variant M398C) Carboxypeptidase Y: KIKDPKILGIDPNVTQYTGYLDVEDEDKHFFFWTFESRNDPAKDPVILWLNGGPGCSSLTGLFFELGPSSIGPDLKPIGNPYSWNSNATVIFLDQPVNVGFSYSGSSGVSNTVAAGKDVYNFLELFFDQFPEYVNKGQDFHIAGESYAGHYIPVFASEILSHKDRNFNLTSVLIGNGLTDPLTQYNYYEPMACGEGGEPSVLPSEECSAMEDSLERCLGLIESCYDSQSVWSCVPATIYCNNAQLAPYQRTGRNVYDIRKDCEGGNLCYPTLQDIDDYLNQDYVKEAVGAEVDHYESCNFDINRNFLFAGDWMKPYHTAVTDLLNQDLPILVYAGDKDFICNWLGNKAWTDVLPWKYDEEFASQKVRNWTASITDEVAGEVKSYKHFTYLRVFNGGHCVPFDVPENALSMVNEWIHGGFSL | 0.93 | 0.75 | 0.65 | 0.64 | 0.52 | 0.95^a | – | improvement in fraction of aminolysis obtained; also recorded: most dramatic improvement; also recorded: enhanced transpeptidation | 0.74^b mM
5 | M398N: carboxypeptidase Y S1' mutant, substitution M398N (protein, UniProt P00729 112-532, looked up, variant M398N) Carboxypeptidase Y: KIKDPKILGIDPNVTQYTGYLDVEDEDKHFFFWTFESRNDPAKDPVILWLNGGPGCSSLTGLFFELGPSSIGPDLKPIGNPYSWNSNATVIFLDQPVNVGFSYSGSSGVSNTVAAGKDVYNFLELFFDQFPEYVNKGQDFHIAGESYAGHYIPVFASEILSHKDRNFNLTSVLIGNGLTDPLTQYNYYEPMACGEGGEPSVLPSEECSAMEDSLERCLGLIESCYDSQSVWSCVPATIYCNNAQLAPYQRTGRNVYDIRKDCEGGNLCYPTLQDIDDYLNQDYVKEAVGAEVDHYESCNFDINRNFLFAGDWMKPYHTAVTDLLNQDLPILVYAGDKDFICNWLGNKAWTDVLPWKYDEEFASQKVRNWTASITDEVAGEVKSYKHFTYLRVFNGGHNVPFDVPENALSMVNEWIHGGFSL | 0.92 | 0.36 | 0.70 | 0.11 | 0.52 | 0.83^a | – | improvement in fraction of aminolysis obtained; also recorded: enhanced transpeptidation | 1.2^c mM
6 | M398F: carboxypeptidase Y S1' mutant, substitution M398F (protein, UniProt P00729 112-532, looked up, variant M398F) Carboxypeptidase Y: KIKDPKILGIDPNVTQYTGYLDVEDEDKHFFFWTFESRNDPAKDPVILWLNGGPGCSSLTGLFFELGPSSIGPDLKPIGNPYSWNSNATVIFLDQPVNVGFSYSGSSGVSNTVAAGKDVYNFLELFFDQFPEYVNKGQDFHIAGESYAGHYIPVFASEILSHKDRNFNLTSVLIGNGLTDPLTQYNYYEPMACGEGGEPSVLPSEECSAMEDSLERCLGLIESCYDSQSVWSCVPATIYCNNAQLAPYQRTGRNVYDIRKDCEGGNLCYPTLQDIDDYLNQDYVKEAVGAEVDHYESCNFDINRNFLFAGDWMKPYHTAVTDLLNQDLPILVYAGDKDFICNWLGNKAWTDVLPWKYDEEFASQKVRNWTASITDEVAGEVKSYKHFTYLRVFNGGHFVPFDVPENALSMVNEWIHGGFSL | 0.87 | 0.85 | 0.86 | 0.85 | 0.83 | 0.96^a | increase in both famax and KN(app) | improvement in fraction of aminolysis obtained; also recorded: most dramatic improvement; also recorded: enhanced transpeptidation | 2.3^b mM
